Laboratory results reported in PMC5291249, “Two p53 tetramers bind one consensus DNA response element”.
Changes are numbered by the printed parent chain.

Tests used:
human p53 (hp53) [1] = target: T1, human p53 (hp53) (Homo sapiens, UniProt P04637 1-393); experiment: EMSA (GA cross-linked SDS-PAGE); 25 mM Tris-HCl pH 7.5, 2 mM DTT, 100 mM NaCl, 1 mM ADP, 5 mM MgCl2 (or 20 mM HEPES pH 7.5, 10 mM ADP), 25 C, then 0.025% glutaraldehyde 20 min; 'weaker' refers; details: protein: recombinant, chain copies: 4
murine p53 (mp53) [2] = target: T2, murine p53 (mp53) (mouse, UniProt P02340 1-390); experiment: as above; details: protein: recombinant, chain copies: 4
mp53Δ30 = mp53Δ30 (mouse, UniProt P02340 1-360); experiment: EMSA (GA cross-linked, IR dye); 25 mM Tris-HCl pH 7.5, 2 mM DTT, 100 mM NaCl, 1 mM ADP, 5 mM MgCl2 (or 20 mM HEPES pH 7.5, 10 mM ADP), 25 C, then 0.025% glutaraldehyde 20 min; 'weaker' refers; details: protein: recombinant; chain copies: 4; label: 5' IR800 both strands; blunt
human p53 (hp53) [3] = target: T1, human p53 (hp53); experiment: as above; details: protein: recombinant; chain copies: 4; label: 5' IR800 both strands; blunt
murine p53 (mp53) [4] = target: T2, murine p53 (mp53); experiment: as above; details: protein: recombinant; chain copies: 4; label: 5' IR800 both strands; blunt
mp53 R273H = mp53 R273H (mouse, UniProt P02340 1-390, R270H); experiment: as above; details: protein: recombinant, chain copies: 4
human p53 (hp53) [5] = target: T1, human p53 (hp53); experiment: EMSA (GA cross-linked SDS-PAGE); multiple tetramers; 25 mM Tris-HCl pH 7.5, 2 mM DTT, 100 mM NaCl, 1 mM ADP, 5 mM MgCl2 (or 20 mM HEPES pH 7.5, 10 mM ADP), 25 C, then 0.025% glutaraldehyde 20 min; 'weaker' refers; details: protein: recombinant; chain copies: 4; blunt
murine p53 (mp53) [6] = target: T2, murine p53 (mp53); experiment: as above; details: protein: recombinant; chain copies: 4; blunt
murine p53 (mp53) [7] = target: T2, murine p53 (mp53); experiment: EMSA (GA cross-linked SDS-PAGE); among most efficient; 25 mM Tris-HCl pH 7.5, 2 mM DTT, 100 mM NaCl, 1 mM ADP, 5 mM MgCl2 (or 20 mM HEPES pH 7.5, 10 mM ADP), 25 C, then 0.025% glutaraldehyde 20 min; 'weaker' refers; details: protein: recombinant; chain copies: 4
human p53 (hp53) [8] = target: T1, human p53 (hp53); experiment: EMSA (GA cross-linked SDS-PAGE); increased vs 2 bp spacer; 25 mM Tris-HCl pH 7.5, 2 mM DTT, 100 mM NaCl, 1 mM ADP, 5 mM MgCl2 (or 20 mM HEPES pH 7.5, 10 mM ADP), 25 C, then 0.025% glutaraldehyde 20 min; 'weaker' refers; details: protein: recombinant; chain copies: 4; blunt
murine p53 (mp53) [9] = target: T2, murine p53 (mp53); experiment: as above; details: protein: recombinant; chain copies: 4; blunt

B1: MCK RE (dsDNA)
DNA 1: TGGCAAGCCTATGACATGGCCGGGGCCTGCCT
DNA 2: AGGCAGGCCCCGGCCATGTCATAGGCTTGCCA
binding result (human p53 (hp53) [1]): binds

B2: DNA31 (1 bp spacer) (dsDNA)
DNA 1: AGCATTGGCTTTCTGGCCATCAGAGACATGCCTGAGACATGCCTAGCTCTGGCATAGAAGAGGCGCT
DNA 2: AGCGCCTCTTCTATGCCAGAGCTAGGCATGTCTCAGGCATGTCTCTGATGGCCAGAAAGCCAATGCT
binding result (human p53 (hp53) [1]; blunt): binds
binding result (murine p53 (mp53) [2]; blunt): binds

B3: DNA6 (no spacer) (dsDNA)
DNA 1: ATGAAATAGACATGCCTAGACATGCCTGAATTAAT
DNA 2: ATTAATTCAGGCATGTCTAGGCATGTCTATTTCAT
binding result (human p53 (hp53) [1]): binds
binding result (murine p53 (mp53) [2]): binds

B4: RGC RE (dsDNA)
DNA 1: TGCCTTGCCTGGACTTGCCTGGCCTTGCCT
DNA 2: AGGCAAGGCCAGGCAAGTTCAGGCAAGGCA
binding result (human p53 (hp53) [1]): binds

B5: p21 RE (dsDNA)
DNA 1: GAACATGTCCCAACATGTTG
DNA 2: CAACATGTTGGGACATGTTC
binding result (murine p53 (mp53) [2]): binds

B6: gadd45_0 (dsDNA)
DNA 1: ATGAAATGAACATGTCTAGGCATGCTGAATTAAT
DNA 2: ATTAATTCAGCATGCCTAGACATGTTCATTTCAT
binding result (mp53Δ30): binds
binding result (human p53 (hp53) [3]): binds
binding result (murine p53 (mp53) [4]): binds

B7: gadd45 RE (Table 1) (dsDNA)
DNA 1: GAACATGTCTAAGCATGCTG
DNA 2: CAGCATGCTTAGACATGTTC
binding result (human p53 (hp53) [1]): binds
binding result (murine p53 (mp53) [2]): binds
binding result (mp53 R273H): no binding

B8: non-specific control DNA (20 bp) (dsDNA)
DNA 1: TCGATCCTCTATGAATTAT
DNA 2: ATAATTCATAGAGGATCGA
binding result (mp53 R273H; label: 5' IR700 both strands): no binding

B9: DNA1 (dsDNA)
DNA 1: AGACATGCCTAGACATGCCT
DNA 2: AGGCATGTCTAGGCATGTCT
binding result (human p53 (hp53) [5]): binds
binding result (murine p53 (mp53) [6]): binds

B10: gadd45_1 (dsDNA)
DNA 1: ATGAAATGAACATGTCTGAGGCATGCTGAATTAA
DNA 2: TTAATTCAGCATGCCTCAGACATGTTCATTTCAT
binding result (human p53 (hp53) [3]): binds
binding result (murine p53 (mp53) [4]): binds

B11: bax RE (dsDNA)
DNA 1: GGGCTATATTTCACAAGTTAGAGACAAGCCTGGGCGTGGGCTATATT
DNA 2: AATATAGCCCACGCCCAGGCTTGTCTCTAACTTGTGAAATATAGCCC
binding result (human p53 (hp53) [1]): binds
binding result (murine p53 (mp53) [7]): binds

B12: DNA21 (dsDNA)
DNA 1: AGCATTGGCTTTCTGGCCATCAGAGACATGCCTAGACATGCCTAGCTCTGGCATAGAAGAGGCGCT
DNA 2: AGCGCCTCTTCTATGCCAGAGCTAGGCATGTCTAGGCATGTCTCTGATGGCCAGAAAGCCAATGCT
binding result (murine p53 (mp53) [6]): binds
binding result (human p53 (hp53) [1]; blunt): binds

B13: Tigar_NS (spacer removed) (dsDNA)
DNA 1: B12 DNA 1 with C31T, T33C, A38T, C41T
DNA 2: B12 DNA 2 with G26A, T29A, A34G, G36A
binding result (human p53 (hp53) [8]): binds
binding result (murine p53 (mp53) [9]): binds
